Assay results from article PMC3061437.

Target: eukaryotic elongation factor-1 A1 (eEF1A1), purified (UniProt P68104)
Sequence of UniProt P68104 (P68104 whole entry): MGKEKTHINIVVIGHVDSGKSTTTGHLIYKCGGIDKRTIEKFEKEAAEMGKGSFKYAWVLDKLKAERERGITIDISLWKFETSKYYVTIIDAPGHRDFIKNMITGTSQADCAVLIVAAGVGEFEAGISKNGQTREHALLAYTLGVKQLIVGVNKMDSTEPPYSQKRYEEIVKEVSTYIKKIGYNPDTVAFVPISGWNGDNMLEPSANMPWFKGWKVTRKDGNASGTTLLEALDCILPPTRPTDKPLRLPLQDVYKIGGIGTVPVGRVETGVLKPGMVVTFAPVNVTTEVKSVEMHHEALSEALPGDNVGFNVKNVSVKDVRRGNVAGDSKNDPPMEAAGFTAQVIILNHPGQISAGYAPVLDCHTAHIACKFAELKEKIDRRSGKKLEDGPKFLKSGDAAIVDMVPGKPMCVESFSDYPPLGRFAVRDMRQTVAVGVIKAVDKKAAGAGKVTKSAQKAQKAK

repression of translation of Luc-BAT in an IVT assay	Substance
> 80%	recombinant full-length (FL) hnRNP E1 expressed as a GST-fusion product (from UniProt Q15365 1-356) (natural protein)
70%	hnRNP E1 KH1 domain expressed as GST-fusion product (domain or fragment)
